{
  "source": "paper doi:10.1101/2025.08.25.672209",
  "about": "“Molecular Architecture and Function Mechanism of Tri-heteromeric GluN1-N2-N3A NMDA Receptors” (bioRxiv, 2025)",
  "binders": {"B1": {"name": "N1-Fab 4F11 (Fab of the anti-GluN1 monoclonal antibody clone 4F11) (Fab, V domains shown)", "VH": "DVQLQESGPGLVKPSQSLSLTCTVTGYSITSDYAWNWIRQFPGNKLEWMGYISYSGSTGYNPSLKSRISITRDTSKNQFFLQLNSVTTEDTATYYCARLYYGFYGMDYWGQGTSVTVSS", "VL": "not shown", "notes": "Raised against CTD-truncated human GluN1-N2A receptors; also called Fab-N1_(4F11); source: hybridoma monoclonal antibody, papain digestion, Fc removed with protein-A agarose, purified by SEC"}},
  "key": {"[1]": {"molecular_target": "T1, GluN1-N3A di-heteromeric NMDA receptor (rat, CTD-truncated; fraction of the same preparation) (rat, UniProt P35439-1;Q9R1M7-1)", "T1 construct": "signal peptide in the construct; rat GluN1-1a, residues 1-847, as m1; rat GluN3A, residues 1-965, as m3; also called GluN1-N3A di-NMDARs; source: HEK293S GnTI- cells, baculovirus transduction; copies: 2 + 2", "assay": "SEC; fluorescence-detection size-exclusion chromatography (FSEC); receptors preincubated with N1-Fab 4F11, N2A-Fab 28C or both; shift of the elution peak", "details": "both partners purified"}, "[2]": {"molecular_target": "T2, rat GluN1-1a (residues 1-847), CTD-truncated (rat, UniProt P35439-1)", "T2 construct": "signal peptide in the construct; rat GluN1-1a, residues 1-847 (CTD-truncated), GenBank NP_058706.1; no tag is stated for GluN1 itself; a T2A remnant may remain on one of the two chains (surmise); source: HEK293S GnTI- cells, baculovirus transduction, co-expressed with GluN2A and GluN3A; purified as receptor complex (Strep-Tactin, Ni resin, SEC)", "assay": "cryo-EM structure; GluN1-N2A-N3A (subunits co-expressed and co-purified) incubated with Fabs 4F11 and 2-8C, SEC in digitonin with 1 mM glycine and 1 mM glutamate, pH 8.0; overall resolution 7.7 Å", "details": "both partners purified"}},
  "data": [
    {"binder": "B1", "values": [
      {"measurement": "binding result", "setting": "[1]", "value": "binds"},
      {"measurement": "binding result", "setting": "[2]", "value": "binds"}
    ]}
  ]
}
